64 substances from IntAct's records for PubMed 28712572 can be followed below.

In the test the target is gbrap_human GABARAP (UniProt O95166).
gbrap_human GABARAP, sequence (O95166 whole entry): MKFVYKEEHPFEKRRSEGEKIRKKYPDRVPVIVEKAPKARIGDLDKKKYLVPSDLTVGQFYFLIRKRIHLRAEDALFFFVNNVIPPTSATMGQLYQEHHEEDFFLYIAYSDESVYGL
In the case of “Pericentriolar material 1 protein (Homo sapiens), Q15154 D1959A”, the “effect of a mutation on the interaction” value is “with no effect”.
In the case of “Pericentriolar material 1 protein (Homo sapiens), Q15154 D1959C” it was “with no effect”; in that of “Pericentriolar material 1 protein (Homo sapiens), Q15154 D1959E”, “with no effect”; in that of “Pericentriolar material 1 protein (Homo sapiens), Q15154 D1959F”, “with no effect”.
On to “Pericentriolar material 1 protein (Homo sapiens), Q15154 D1959G”, for which the “effect of a mutation on the interaction” value is “with no effect”.
Take “Pericentriolar material 1 protein (Homo sapiens), Q15154 D1959H”: the “effect of a mutation on the interaction” value is “with no effect”.
As for “Pericentriolar material 1 protein (Homo sapiens), Q15154 D1959I”, the “effect of a mutation on the interaction” value is “with no effect”.
The entry for “Pericentriolar material 1 protein (Homo sapiens), Q15154 D1959K” is “decreasing interaction strength”; for “Pericentriolar material 1 protein (Homo sapiens), Q15154 D1959L” it is “with no effect”.
“Pericentriolar material 1 protein (Homo sapiens), Q15154 D1959M”: the “effect of a mutation on the interaction” value is recorded as “with no effect”.
The entry for “Pericentriolar material 1 protein (Homo sapiens), Q15154 D1959N” is “with no effect”; for “Pericentriolar material 1 protein (Homo sapiens), Q15154 D1959P” it is “with no effect”.
In the case of “Pericentriolar material 1 protein (Homo sapiens), Q15154 D1959Q”, the “effect of a mutation on the interaction” value is on record as “with no effect”.
The entry for “Pericentriolar material 1 protein (Homo sapiens), Q15154 D1959R” is “with no effect”.
“Pericentriolar material 1 protein (Homo sapiens), Q15154 D1959S”: the “effect of a mutation on the interaction” value is listed as “with no effect”.
With “Pericentriolar material 1 protein (Homo sapiens), Q15154 D1959T”, the “effect of a mutation on the interaction” value is reported as “with no effect”.
In the case of “Pericentriolar material 1 protein (Homo sapiens), Q15154 D1959V” it was “decreasing interaction strength”; in that of “Pericentriolar material 1 protein (Homo sapiens), Q15154 D1959W”, “with no effect”; in that of “Pericentriolar material 1 protein (Homo sapiens), Q15154 D1959Y”, “with no effect”.
In the case of “Pericentriolar material 1 protein (Homo sapiens), Q15154 D1962A” it was “with no effect”.
For the substance “Pericentriolar material 1 protein (Homo sapiens), Q15154 D1962C”, the “effect of a mutation on the interaction” value is “with no effect”.
On to “Pericentriolar material 1 protein (Homo sapiens), Q15154 D1962E”, for which the “effect of a mutation on the interaction” value is recorded as “with no effect”.
Take “Pericentriolar material 1 protein (Homo sapiens), Q15154 D1962F”: the “effect of a mutation on the interaction” value is given as “with no effect”.
For the substance “Pericentriolar material 1 protein (Homo sapiens), Q15154 D1962G”, the “effect of a mutation on the interaction” value is recorded as “with no effect”.
For the substance “Pericentriolar material 1 protein (Homo sapiens), Q15154 D1962H”, the “effect of a mutation on the interaction” value is listed as “decreasing interaction strength”.
On to “Pericentriolar material 1 protein (Homo sapiens), Q15154 D1962I”, for which the “effect of a mutation on the interaction” value was “disrupting interaction strength”.
“Pericentriolar material 1 protein (Homo sapiens), Q15154 D1962K”: the “effect of a mutation on the interaction” value is given as “disrupting interaction strength”.
Turning to “Pericentriolar material 1 protein (Homo sapiens), Q15154 D1962L”, the “effect of a mutation on the interaction” value is reported as “disrupting interaction strength”.
The entry for “Pericentriolar material 1 protein (Homo sapiens), Q15154 D1962M” is “decreasing interaction strength”; for “Pericentriolar material 1 protein (Homo sapiens), Q15154 D1962N” it is “decreasing interaction strength”; for “Pericentriolar material 1 protein (Homo sapiens), Q15154 D1962P” it is “disrupting interaction strength”.
On to “Pericentriolar material 1 protein (Homo sapiens), Q15154 D1962Q”, for which the “effect of a mutation on the interaction” value is on record as “decreasing interaction strength”.
As to “Pericentriolar material 1 protein (Homo sapiens), Q15154 D1962R”, the “effect of a mutation on the interaction” value is “decreasing interaction strength”.
“Pericentriolar material 1 protein (Homo sapiens), Q15154 D1962S”: the “effect of a mutation on the interaction” value was “with no effect”.
In the case of “Pericentriolar material 1 protein (Homo sapiens), Q15154 D1962T” it was “with no effect”.
In the case of “Pericentriolar material 1 protein (Homo sapiens), Q15154 D1962V” it was “disrupting interaction strength”; in that of “Pericentriolar material 1 protein (Homo sapiens), Q15154 D1962W”, “with no effect”; in that of “Pericentriolar material 1 protein (Homo sapiens), Q15154 D1962Y”, “disrupting interaction strength”.
For “Pericentriolar material 1 protein (Homo sapiens), Q15154 D1968A”, the “effect of a mutation on the interaction” value is “with no effect”.
As to “Pericentriolar material 1 protein (Homo sapiens), Q15154 D1968C”, the “effect of a mutation on the interaction” value is “with no effect”.
“Pericentriolar material 1 protein (Homo sapiens), Q15154 D1968E”: the “effect of a mutation on the interaction” value is given as “with no effect”.
In the case of “Pericentriolar material 1 protein (Homo sapiens), Q15154 D1968F” it was “with no effect”.
In the case of “Pericentriolar material 1 protein (Homo sapiens), Q15154 D1968G”, the “effect of a mutation on the interaction” value was “with no effect”.
Turning to “Pericentriolar material 1 protein (Homo sapiens), Q15154 D1968H”, the “effect of a mutation on the interaction” value is “with no effect”.
“Pericentriolar material 1 protein (Homo sapiens), Q15154 D1968I”: the “effect of a mutation on the interaction” value is given as “with no effect”.
The entry for “Pericentriolar material 1 protein (Homo sapiens), Q15154 D1968K” is “with no effect”; for “Pericentriolar material 1 protein (Homo sapiens), Q15154 D1968L” it is “with no effect”.
As to “Pericentriolar material 1 protein (Homo sapiens), Q15154 D1968M”, the “effect of a mutation on the interaction” value is listed as “with no effect”.
For “Pericentriolar material 1 protein (Homo sapiens), Q15154 D1968N”, the “effect of a mutation on the interaction” value is “with no effect”.
Consider “Pericentriolar material 1 protein (Homo sapiens), Q15154 D1968P”, for which the “effect of a mutation on the interaction” value was “with no effect”.
Turning to “Pericentriolar material 1 protein (Homo sapiens), Q15154 D1968Q”, the “effect of a mutation on the interaction” value is reported as “with no effect”.
With “Pericentriolar material 1 protein (Homo sapiens), Q15154 D1968R”, the “effect of a mutation on the interaction” value is “with no effect”.
For “Pericentriolar material 1 protein (Homo sapiens), Q15154 D1968S”, the “effect of a mutation on the interaction” value was “with no effect”.
Take “Pericentriolar material 1 protein (Homo sapiens), Q15154 D1968T”: the “effect of a mutation on the interaction” value is recorded as “with no effect”.
As to “Pericentriolar material 1 protein (Homo sapiens), Q15154 D1968V”, the “effect of a mutation on the interaction” value is reported as “with no effect”.
“Pericentriolar material 1 protein (Homo sapiens), Q15154 D1968W”: the “effect of a mutation on the interaction” value is recorded as “with no effect”.
On to “Pericentriolar material 1 protein (Homo sapiens), Q15154 D1968Y”, for which the “effect of a mutation on the interaction” value was “with no effect”.
For the substance “Pericentriolar material 1 protein (Homo sapiens), Q15154 E1960A”, the “effect of a mutation on the interaction” value is listed as “with no effect”.
“Pericentriolar material 1 protein (Homo sapiens), Q15154 E1960C”: the “effect of a mutation on the interaction” value is recorded as “with no effect”.
Turning to “Pericentriolar material 1 protein (Homo sapiens), Q15154 E1960D”, the “effect of a mutation on the interaction” value is reported as “with no effect”.
Regarding “Pericentriolar material 1 protein (Homo sapiens), Q15154 E1960F”, the “effect of a mutation on the interaction” value is given as “with no effect”.
Consider “Pericentriolar material 1 protein (Homo sapiens), Q15154 E1960G”, for which the “effect of a mutation on the interaction” value is recorded as “with no effect”.
Turning to “Pericentriolar material 1 protein (Homo sapiens), Q15154 E1960H”, the “effect of a mutation on the interaction” value is “with no effect”.
Turning to “Pericentriolar material 1 protein (Homo sapiens), Q15154 E1960I”, the “effect of a mutation on the interaction” value is recorded as “with no effect”.
